B1: aroA: wild-type E. coli aroA (EPSP synthase), expressed from plasmid pPEH307 (protein, UniProt P0A6D3 1-427, looked up)
3-phosphoshikimate …: MESLTLQPIARVDGTINLPGSKSVSNRALLLAALAHGKTVLTNLLDSDDVRHMLNALTALGVSYTLSADRTRCEIIGNGGPLHAEGALELFLGNAGTAMRPLAAALCLGSNDIVLTGEPRMKERPIGHLVDALRLGGAKITYLEQENYPPLRLQGGFTGGNVDVDGSVSSQFLTALLMTAPLAPEDTVIRIKGDLVSKPYIDITLNLMKTFGVEIENQHYQQFVVKGGQSYQSPGTYLVEGDASSASYFLAAAAIKGGTVKVTGIGRNSMQGDIRFADVLEKMGATICWGDDYISCTRGELNAIDMDMNHIPDAAMTIATAALFAKGTTTLRNIYNWRVKETDRLFAMATELRKVGAEVEEGHDYIRITPPEKLNFAEIATYNDHRMAMCFSLVALSDTPVTILDPKCTAKTFPDYFEQLARISQAA
B2: GRG-1: glyphosate resistance protein (SEQ ID NO:2), homologous to EPSP synthases; expressed in E. coli from plasmid pPEH306 (protein)
chain: MKVTIQPGDLTGILQSPASKSSMQRACAAALVAKGISEIINPGHSNDDKAARDIVSRLGARLEDQPDGSLQITSEGVKPVAPFIDCGESGLSIRMFTPIVALSKEEVTIKGSGSLVTRPMDFFDEILPHLGVKVKSNQGKLPLVIQGPLKPADVTVDGSLSSQFLTGLLLAYAAADASDVAIKVTNLKSRPYIDLTLDVMKRFGLKTPENRNYEEFYFKAGNVYDETKMQRYTVEGDWSGGAFLLVAGAIAGPITVRGLDIASTQADKAIVQALMSANAGIAIDAKEIKLHPADLNAFEFDATDCPDLFPPLVALASYCKGETKIKGVSRLAHKESDRGLTLQDEFGKMGVEIHLEGDLMRVIGGKGVKGAEVSSRHDHRIAMACAVAALKAVGETTIEHAEAVNKSYPDFYSDLKQLGGVVSLNHQFNFS
modifications: Enterobacteriaceae
notes: expressed in E. coli from plasmid pPEH306

Experiments:
[1] = system: E. coli XL1 Blue MRF′; assay: Growth of GRG-1 or aroA expressing strains in M9 liquid medium with glyphosate, absorbance at 600 nm at 8 hours; format: cell-based; settings: for absorbance of the culture at 600 nm: 8 hours, mean of three cultures
Description: Strains engineered to express either GRG-1 or the wild-type E. coli aroA were engineered as described in the following way. A customized expression vector, pPEH304 Cm was constructed. The essential features of pPEH304 Clare the origin of replication from pBR322, a chloramphenicol acetyl transferase gene (for selection and maintenance of the plasmid), the lacI gene, the Ptac promoter and the rrnB transcriptional terminator. The GRG-1 open reading frame was amplified as described in Example 7. […] The aroA open reading frame was amplified by PCR from E. coli strain XL1 Blue MRF′ (Stratagene). During PCR, restriction sites were added to facilitate cloning into pPEH304 Cm.
The PCR products for GRG-1 and aroA were cloned into the expression vector pPEH304 Cm to yield the plasmids pPEH306 and pPEH307, respectively, and transformed into E. coli XL1 Blue MRF′. Correct clones were identified by standard methods known in the art. The sequence of the GRG-1 and aroA open reading frames in expression clones in pPEH306 and pPEH307 were confirmed by DNA sequencing.
Strains were grown to saturation (overnight) in Luria Broth (Sambrook and Russell, 2001, supra) then diluted 1:100 in M9 liquid medium (recipe) containing 0 to 30 mM glyphosate, and supplemented with 10 g glucose, 10 mg Thiamine-HCl and 25 mg L-Proline. High level transcription from the Ptac promoter was stimulated by including 0.1 mM IPTG in a subset of the cultures (noted as +IPTG in Table 7).
Each culture was grown in a 3 ml tube at 37° C. on a culture wheel. There were three replicate tubes of each treatment. After 8 hours of growth, 310 microliters of culture was withdrawn and placed into a 96-well plate. The absorbance of the culture at 600 nm was measured on a Spectramax 96 well plate reader. The experiment was performed in triplicate, and the values in Table 7 reflect the means of three cultures.

[2] = system: E. coli XL1 Blue MRF′; assay: Growth of GRG-1 or aroA expressing strains in M63 liquid medium with glyphosate, absorbance at 600 nm at 24 hours; format: cell-based; settings: M63, +IPTG
Method: In addition, these strains engineered to express either GRG-1 or the wild-type E. coli aroA, were tested in another minimal media, M63, with glyphosate concentrations up to 150 mM. 1×M63 was supplemented with 10 g glucose, 10 mg Thiamine-HCl and 25 mg L-Proline. The strains were grown to saturation (overnight) in Luria Broth (Sambrook and Russell, 2001, supra) then washed two times in M63 media (adapted from Current Protocols in Molecular Biology, Greene Publishing and Wiley-Interscience, New York) before being diluted 1:100 in fresh M63 liquid medium containing 0 to 150 mM glyphosate. High level transcription from the Ptac promoter was stimulated by including 0.1 mM IPTG all of the cultures.
Each culture was grown in 2 mls of media in 10 ml tubes at 37° C. in a shaker. At 24 hours, 300 microliters of the culture was withdrawn and placed into a 96-well assay plate. The absorbance of the culture at 600 nm was measured on a Spectromax 96 well plate reader. The values in Table 8 reflect this experiment at 24 hours (NT not tested).

[3] = +IPTG (0.1 mM), 0 mM glyphosate
[4] = +IPTG (0.1 mM), 5 mM glyphosate
[5] = +IPTG (0.1 mM), 10 mM glyphosate
[6] = +IPTG (0.1 mM), 20 mM glyphosate
[7] = +IPTG (0.1 mM), 30 mM glyphosate
[8] = glyphosate concentration 0, 24 hours
[9] = glyphosate concentration 5 (mM), 24 hours
[10] = glyphosate concentration 30 (mM), 24 hours
[11] = glyphosate concentration 60 (mM), 24 hours

Row | Molecule | absorbance of the culture at 600 nm [1, 3] | absorbance of the culture at 600 nm [1, 4] | absorbance of the culture at 600 nm [1, 5] | absorbance of the culture at 600 nm [1, 6] | absorbance of the culture at 600 nm [1, 7] | absorbance of the culture at 600 nm ([1]; no IPTG, 0 mM glyphosate) | absorbance of the culture at 600 nm ([1]; no IPTG, 5 mM glyphosate) | absorbance of the culture at 600 nm ([1]; no IPTG, 10 mM glyphosate) | absorbance of the culture at 600 nm ([1]; no IPTG, 20 mM glyphosate) | absorbance of the culture at 600 nm ([1]; no IPTG, 30 mM glyphosate) | glyphosate concentrations that inhibit growth of expressing cells ([1]; summary of Table 7) [mM] | absorbance of the culture at 600 nm [2, 8] | absorbance of the culture at 600 nm [2, 9] | absorbance of the culture at 600 nm [2, 10] | absorbance of the culture at 600 nm [2, 11] | glyphosate concentration in whose presence survival and growth of E. coli is allowed ([1]; summary of Table 7) [mM] | absorbance of the culture at 600 nm ([2]; glyphosate concentration 150 (mM), 24 hours)
1 | B1 | 0.075 | 0.068 | 0.063 | 0.056 | 0.052 | 0.095 | 0.048 | 0.046 | 0.047 | 0.048 | ≥ 10 | 0.5982 | 0.1209 | 0.0276 | 0.0298 | – | –
2 | B2 | 0.100 | 0.104 | 0.117 | 0.125 | 0.135 | 0.092 | 0.102 | 0.110 | 0.112 | 0.104 | – | 0.4943 | 0.7192 | 0.7884 | 0.789 | 30 | 0.951
